For assay [1], the target named is T1, baculovirus-produced recombinant human Dsg4-EHis (human, UniProt Q86SJ6 50-631).
T1 construct: not shown: E-tag and histidine tag
T1 sequence (looked up): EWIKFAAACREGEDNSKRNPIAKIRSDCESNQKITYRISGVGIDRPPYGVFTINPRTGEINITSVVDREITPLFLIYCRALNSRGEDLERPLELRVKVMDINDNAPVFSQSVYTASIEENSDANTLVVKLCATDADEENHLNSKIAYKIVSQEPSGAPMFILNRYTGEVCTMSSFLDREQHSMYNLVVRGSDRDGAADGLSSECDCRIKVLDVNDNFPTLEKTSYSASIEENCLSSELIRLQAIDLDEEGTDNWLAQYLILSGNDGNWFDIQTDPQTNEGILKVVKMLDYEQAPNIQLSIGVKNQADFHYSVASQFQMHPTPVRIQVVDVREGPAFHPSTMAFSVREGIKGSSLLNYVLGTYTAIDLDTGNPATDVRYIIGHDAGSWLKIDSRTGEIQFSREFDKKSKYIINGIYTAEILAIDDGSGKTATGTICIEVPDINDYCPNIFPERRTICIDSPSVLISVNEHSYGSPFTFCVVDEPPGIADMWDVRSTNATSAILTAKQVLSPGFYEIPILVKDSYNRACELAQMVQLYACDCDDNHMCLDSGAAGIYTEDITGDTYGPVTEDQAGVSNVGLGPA
Briefly: immunoprecipitation of Dsg4-EHis with scFv, anti-E tag immunoblot. The procedure:
To determine whether anti-Dsg1 scFvs also bind Dsg4, baculovirus-produced recombinant human Dsg4-EHis and human Dsg1-EHis (“EHis” tag defined above) was used (Nagasaka et al., 2004 J. Clin. Invest 114:1484-1492.). Baculovirus-infected insect cell culture supernatants containing recombinant molecules were incubated with scFvs for 30 minutes and then immunoprecipitated with anti-HA agarose (Sigma-Aldrich) at 4° C. for 2 hours with gentle rotation. After washing with TBS-Ca, the immunoprecipitates were resuspended in Laemmli sample buffer, separated by SDS-PAGE, and transferred to nitrocellulose membranes (Bio-Rad Labratories). Membranes were probed with HRP-conjugated anti-E-tag antibody (1:2000 dilution, GE Healthcare Bio-Sciences).
Some pemphigus sera bind Dsg4, and this binding was due to antibodies against Dsg1 that cross react with Dsg4. To determine whether any of the anti-Dsg1 monoclonal antibodies crossreact with Dsg4, scFvs were used to immunoprecipitate recombinant Dsg4 containing a carboxy-terminal E-epitope tag, then identified its presence on an immunoblot stained with anti-E tag antibodies.
A general note: A western blot detects proteins with antibodies after separation by electrophoresis.

Assay [2] concerns the target T2, recombinant human desmoglein 3 (Dsg3) on ELISA plates (MBL) (human, UniProt P32926 50-615, limits assumed).
T2 construct: Commercial Dsg3 ELISA plate (MBL)
T2 sequence (looked up): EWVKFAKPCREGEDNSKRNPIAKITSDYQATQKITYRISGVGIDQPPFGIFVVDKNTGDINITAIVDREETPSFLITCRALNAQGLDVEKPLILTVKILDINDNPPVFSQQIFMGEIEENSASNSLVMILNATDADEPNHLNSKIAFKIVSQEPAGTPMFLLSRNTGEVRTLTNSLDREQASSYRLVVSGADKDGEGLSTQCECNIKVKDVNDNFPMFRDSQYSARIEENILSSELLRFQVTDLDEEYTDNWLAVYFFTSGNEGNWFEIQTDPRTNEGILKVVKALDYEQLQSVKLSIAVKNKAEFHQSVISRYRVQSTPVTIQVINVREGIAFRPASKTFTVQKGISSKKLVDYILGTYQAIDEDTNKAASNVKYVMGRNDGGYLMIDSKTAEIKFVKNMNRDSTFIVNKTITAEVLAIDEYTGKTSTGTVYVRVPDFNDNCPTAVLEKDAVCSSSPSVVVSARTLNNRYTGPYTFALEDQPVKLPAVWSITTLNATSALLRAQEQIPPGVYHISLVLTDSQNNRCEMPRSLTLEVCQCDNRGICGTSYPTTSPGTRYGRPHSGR
The experiment in a line: Dsg3 ELISA (MBL), soluble scFv, anti-HA detection.

B1: 1-18/L12 (scFv)
scFv: ELQMTQSPSTLSASVGDRVTITCRASQGISNWLAWYQQKPGKAPKLLIHKASSLESGVPSRFSGSGSGTEFTLTISSLQPDDFATYYCQQYYTYPLTFGGGTKVEIKGGSSRSSSSGGGGSGGGGQVQLVQSGAEVKKPGASVKVSCKASGYTFTNYGITWVRQAPGQGLEWMGWISVYNGDTKYAQKLQGRVTMTTDTPTNTVYMELRSLRSDDTAVYYCARGYGSGNWDYWGQGTLVTVSS
notes: VH1-18, VDJ1, VL gene L12; also called PF1-2-6
As to B1, the binding result in assay [1] and in assay [2] was “no binding” throughout.

B2: 3-30/3h (scFv)
scFv: ELVLTQPPSVPVAPGQTANISCGGNNIGRQTVHWYQQKPGQAPVLVVFDDSDRPAGIPERFSGSNSGNTATLTISRVEAGDEADYYCQVWDSSSDHVVFGGGTQLTVLGGGSSRSSSSGGGGSGGGGQVQLVQSGGGVVQSGRSLRLSCAASGFTFSDYAMHWVRQAPGKGLEWVAVISHGGTKKYTGDSVKGRFIISRDNSKNTVFLQMNSLRVEDTAVYYCARDRVEGYVWGGTFDHWGQGTPVTVSS
notes: VH3-30, VDJ12, VL gene 3h; pathogenic; also called PF1-8-15; VH3-30 clone
B2: the binding result in assay [1] and in assay [2] was “no binding” throughout.

(Values after US20110091449A1 (University of Pennsylvania, published 2011).)
